{"source": "the nanobody polyreactivity screen of Harvey et al. (2022)"}
{"test": "yeast display, Sf9 membrane polyspecificity reagent, FACS + sequencing; frameworks hold sequencing errors", "outline": "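Galactose-induced (36–48 hours) yeast carrying a synthetic nanobody display library were exposed to 10% biotinylated, detergent-solubilized Sf9 membrane reagent at 4 °C for 1 hour. FACS followed streptavidin microbead enrichment, using low and high (top ~1%) gates for expression (anti-HA) and reagent binding (streptavidin). Colony PCR, MiSeq 2 × 250 sequencing and CDR-length filtering followed. Labels for polyreactivity reflect the gate of origin.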"}
{"sequence": "QVQLVESGGGLVQAGGSLRLSCAASGRIFPSNAMGWYRQAPGKERELVAAISVSGGSTYYADSVKGRFTISRDNAKNTVYLQMNSLKPEDTAVYYCAVRAWDPYTGKSDYWGQGTQVTVSS", "polyreactivity (PSR sort gate)": "low polyreactivity"}
{"sequence": "QVQLVESGGGLVQAGGSLRLSCAASGRIFPSYAMGSSRQAPGKEREFVAAITWSGTDTYYADSVQGRFTISRDNAKNTVYLQMTSLKPEDTAVYYCAAEEYVEVDTTAYDYWGQGTQVTVSS", "polyreactivity (PSR sort gate)": "low polyreactivity"}
{"sequence": "QVQLVESGGGLVQAGGSLRLSCAASGRIFPSYAMGWYRQAPGKERELVAAISSSSAGTYYADSVKGRFTISRDNAKNTVYLQMNSLKPEDTAVYYCAAASARYRQYKSYYYWGQGTQVTVSS", "polyreactivity (PSR sort gate)": "high polyreactivity"}
{"sequence": "QVQLVESGGGLVQAGGSLRLSCAASGRIFPSYAMGWYRQAPGKERELVATISSGGRTYYADSVKGRFTISRDNAKNTVYLQMNSLKPEDTEVYYCNADRTQDRNPYTYATFDYWGQGTQVTVSS", "polyreactivity (PSR sort gate)": "low polyreactivity"}
{"sequence": "QVQLVESGGGLVQAGGSLRLSCAASGRIFPTNAMGWYRQAPGKERELVAAIPVSGGSTYYADSVKGRFTISRDNAKKTVYLQMNSLKPEDTAVYYCAVDDRASVGSRLDHWGQGTQVTVSS", "polyreactivity (PSR sort gate)": "low polyreactivity"}
{"sequence": "QVQLVESGGGLVQAGGSLRLSCAASGRIFPVNAMGRYRQAPGKERELVATISSGDITNYADSVKGRFTISRDNAKNTVYLQMNSLKPEDTAVYYCNADTSYSEWGSWYYEYDYWGQGTQVTVSS", "polyreactivity (PSR sort gate)": "low polyreactivity"}
{"sequence": "QVQLVESGGGLVQAGGSLRLSCAASGRIFPVYAMGWYRQATGKERELVATISYSGSSTYYADSVKGRFTISRDNAKNTVYLQMNSLKPEDTAVYYCNADAFGPPGVQYYYWGQGTQVTVSS", "polyreactivity (PSR sort gate)": "low polyreactivity"}
{"sequence": "QVQLVESGGGLVQAGGSLRLSCAASGRIFPVYVMGWYRQAPGKEREFVASISWRGGSTFYADSVKGRFTISRDNAKNTVYLQMNSLKPEDTAVYYCAADYWSSDSSRGTMYYWGQGTQVTVSS", "polyreactivity (PSR sort gate)": "low polyreactivity"}
{"sequence": "QVQLVESGGGLVQAGGSLRLSCAASGRIFPYNAMGWYRPAPGKEREFVAAITWSGGSTYYADSVKGRFTISRDNAKNTVYLQMNCLKPEDTAVYYCAIRYPWQYNYWGQGTQVTVSS", "polyreactivity (PSR sort gate)": "high polyreactivity"}
{"sequence": "QVQLVESGGGLVQAGGSLRLSCAASGRIFPYNAMGWYRQAPGKERELVAAINWSGGSTYYADSVKGRFTISRDNAKNTVYLQMNSLKPEDTAVYYCAAVYRYNSDPDYDYWGQGTQVTVSS", "polyreactivity (PSR sort gate)": "high polyreactivity"}
{"sequence": "QVQLVESGGGLVQAGGSLRLSCAASGRIFPYYAMGWYRQAPGKERELVAAINWRGTRTYADSVKGRFTLSRDNAKNTVYLQMNSLKPEDTEVYYCAARTLYFSKYDYWGQGTQVTVSS", "polyreactivity (PSR sort gate)": "high polyreactivity"}
{"sequence": "QVQLVESGGGLVQAGGSLRLSCAASGRIFPYYAMGWYRQAPGKERELVAAITSGGTTYYADSVKGRFTISRDNAKNTVYLQMNSLKPEDTAVYYCNAVGTPVKISTDRGYWGQGTQVTVSS", "polyreactivity (PSR sort gate)": "low polyreactivity"}
{"sequence": "QVQLVESGGGLVQAGGSLRLSCAASGRIFPYYAMGWYRQAPGKERELVATITSGGSTYYADSVKGRFTISRDNAKNTVYLQMNSLKPEDTAVYYCAARYPSIYFYRYDYWGQGNQVTVSS", "polyreactivity (PSR sort gate)": "high polyreactivity"}
{"sequence": "QVQLVESGGGLVQAGGSLRLSCAASGRIFPYYAMGWYRQAPGKERELVAVISTRGGSTYYADSVKGRFTISRDNAKNTVYLQMNSLKPEDTAVYYCAAKSVYRMGYWGQGTQVTVSS", "polyreactivity (PSR sort gate)": "high polyreactivity"}
{"sequence": "QVQLVESGGGLVQAGGSLRLSCAASGRIFPYYVMGWYRQAPGKERELVAAISRSGSSTYYADSVKGRFTISRDNAKNTVYLQMNSLKPEDTAVYYCAADYNWSPYYTRGDYWGQGTQVTVSS", "polyreactivity (PSR sort gate)": "high polyreactivity"}
{"sequence": "QVQLVESGGGLVQAGGSLRLSCAASGRIFQINAMGWYRQAPGKERELVAAISWSDDTTYYADSVKGRFTISRDNAKNTVYLQMISLKPEDTAVYYCAAERGQDYSYSGDDDYWGQGTQVTVSS", "polyreactivity (PSR sort gate)": "high polyreactivity"}
{"sequence": "QVQLVESGGGLVQAGGSLRLSCAASGRIFQIYAMGWYRQAHGKERELVAAISSGGTTYYADSVKGRFTISRDNAKYTVYLLMNSLKPEDTAVYYCADASGYYRYDYWGQGTQVTVSS", "polyreactivity (PSR sort gate)": "high polyreactivity"}
{"sequence": "QVQLVESGGGLVQAGGSLRLSCAASGRIFQIYAMGWYRQAPGKERELVAAISGSTSYADSVKGRFTISRDNAKNTVYLQMNCLKPEDSAVYDCSALSLLPNGEYWGQGSQVTVSS", "polyreactivity (PSR sort gate)": "low polyreactivity"}
{"sequence": "QVQLVESGGGLVQAGGSLRLSCAASGRIFQIYAMGWYRQAPGKERELVAAISNRGGSTYYADSVKGRFTISRDNAKNTVYLQMNSLKPEDTAVYYCNATTGYGGYNYWGQGTQVTVSS", "polyreactivity (PSR sort gate)": "low polyreactivity"}
{"sequence": "QVQLVESGGGLVQAGGSLRLSCAASGRIFQIYAMGWYRQAPGKERELVATISSGTRTYYADSVKGRFTISRDNAKNTVYLQMNSLKPEDTAVYYCNTGLVYGYDYWGQGTQVTVSS", "polyreactivity (PSR sort gate)": "high polyreactivity"}
{"sequence": "QVQLVESGGGLVQAGGSLRLSCAASGRIFQKNAMGWNIQAPGKERELVAVISWSDGSTNYADSVKGRFTISRDNAKNTVYLQMNSLKPEDTAVYYCNAAPLEGTLYDSWGQGTQVTVSS", "polyreactivity (PSR sort gate)": "low polyreactivity"}
{"sequence": "QVQLVESGGGLVQAGGSLRLSCAASGRIFQKNAMGWYRQPPGKERELVAAISGSGSTTNYADSVKGRFTISRDNAKNTVDLQMNSLKPEDTAVFYCGTGKRGVSGRGFRYDYWGQGTQVTVSS", "polyreactivity (PSR sort gate)": "high polyreactivity"}
{"sequence": "QVQLVESGGGLVQAGGSLRLSCAASGRIFQKYAMGWSRQAPGKERELVAAISYGGGRTYYADSVKGRFTISRDNAKNTVYLQMNSLKPEDTAVYYCATDYKYAAPTVIESDYWGQGTQVTVSS", "polyreactivity (PSR sort gate)": "high polyreactivity"}
{"sequence": "QVQLVESGGGLVQAGGSLRLSCAASGRIFQPYALGWYRQAPGKEREWVAAITRRAGSTYYADSVQGRFTISRDNAKNTVYLQMNSLKPDDTAVYYCAARGLYWAYEMEYWGQGTQVTVSS", "polyreactivity (PSR sort gate)": "low polyreactivity"}
{"sequence": "QVQLVESGGGLVQAGGSLRLSCAASGRIFQPYAMGWYRPAPGKDRELVAAITRRAGSTYYADSVKGRFTISRDNAKYTVYLQMNSLKPEDTAVYYCAARGLYWAYEMEYWGQGTQVTVSS", "polyreactivity (PSR sort gate)": "low polyreactivity"}
{"sequence": "QVQLVESGGGLVQAGGSLRLSCAASGRIFQPYAMGWYRQAPGKERELVARITSGGSTYADSVKGRFTISRDNAKNTVYLQMNSLKPEDTAVYYCAVRYPWYYRGYAYDYWGQGTQVTVSS", "polyreactivity (PSR sort gate)": "high polyreactivity"}
{"sequence": "QVQLVESGGGLVQAGGSLRLSCAASGRIFQRNAMGWYRQAPGKEREFVAAITKSGGGTYADSVKGRFTISRDNAKNTVYLQMISLKPEDTAVYYCNVVPVWRPYSLINWQKHFGYWGQGTQVTVSS", "polyreactivity (PSR sort gate)": "high polyreactivity"}
{"sequence": "QVQLVESGGGLVQAGGSLRLSCAASGRIFQRNVMGWYRQAPGKERELVAAITGSGGSTYYADSLKGRFTISRDNAKNTVYLQMNSLKPEYTAVYYCAAKVYRGYDYWGQGTQVTVSS", "polyreactivity (PSR sort gate)": "high polyreactivity"}
{"sequence": "QVQLVESGGGLVQAGGSLRLSCAASGRIFQRYAMGWYRQAPGKERELVAAISSSGTTYYADSVKGRFTISRDNAKNTVYLQMNSLKPEDTAVYYCAATYYTSRISRRYGYWGQGTQVTVSS", "polyreactivity (PSR sort gate)": "high polyreactivity"}
{"sequence": "QVQLVESGGGLVQAGGSLRLSCAASGRIFQRYTMGWYRQAPGKEREFVAAITYSGGSTHYADSVKGRFTISRDNAKNTVYLQMNSLKPEDTAVYYCIADRYYGRGYGYWGQGTQVTVSS", "polyreactivity (PSR sort gate)": "low polyreactivity"}
{"sequence": "QVQLVESGGGLVQAGGSLRLSCAASGRIFQRYTMGWYRQAPGKEREFVAAITYSGGSTHYADSVKRRFTISRDNAKYTVYLQMNSLKPEDTAVYSCNARTSVLHDYWGQGTQVTVSS", "polyreactivity (PSR sort gate)": "low polyreactivity"}
{"sequence": "QVQLVESGGGLVQAGGSLRLSCAASGRIFQYYAMGWYRQAPGKERELVAAINSSGGRTYYADSVKGRFTISRDNAKNTVYLQMNSLKPEDTAVYYCNAVLSTRGMDYWGQGTQVTVSS", "polyreactivity (PSR sort gate)": "high polyreactivity"}
{"sequence": "QVQLVESGGGLVQAGGSLRLSCAASGRIFQYYAMGWYRQAPGKERELVAAISSAGSTYYADSVKGRFTISRDNAKNTVYLQMNSLKPEDTAVYYCAVGKQVLSYQNYYWGQGTQVTVSS", "polyreactivity (PSR sort gate)": "low polyreactivity"}
{"sequence": "QVQLVESGGGLVQAGGSLRLSCAASGRIFQYYAMGWYRQAPGKERELVAAITRSGGSTYYADSVNGRFTISRDNAKNTVYLQMNSLKPEDTAVYYCARTYWITNSKFRDYLGAYGGEYWGQGTQVTVSS", "polyreactivity (PSR sort gate)": "high polyreactivity"}
{"sequence": "QVQLVESGGGLVQAGGSLRLSCAASGRIFQYYAMGWYRQATGKERELVAAISRTGSPYYADSVKGRVTISRDNAKNTVSLQMNSLTPADTAVYFCAADYWPQSNRWVYFRYGYWGLGTQVTVSS", "polyreactivity (PSR sort gate)": "high polyreactivity"}
{"sequence": "QVQLVESGGGLVQAGGSLRLSCAASGRIFRANAMGWYRQAPGKERELVAAISTSGGSTTYADSVKGRFTISRDNAKNTVYLQMNCLKPEDTAVYYCAVDSWLKWRDKWVIRHDYWGQGTQVTVSS", "polyreactivity (PSR sort gate)": "high polyreactivity"}
{"sequence": "QVQLVESGGGLVQAGGSLRLSCAASGRIFRANTMGWYRQAPGKERELVAVITASGGSTYYADSVKGRFTISRDNAKNTVYLQMNSLKPEDTAVYYCNRVPRTRLSGHDYWGQGTQVTVSS", "polyreactivity (PSR sort gate)": "high polyreactivity"}
{"sequence": "QVQLVESGGGLVQAGGSLRLSCAASGRIFRAYAMGWYRQAPGKERELVAAITSGVSTNYADSVKGRFTISRDNAKNTVYLQMNSLKPEDTAVYYCAVLGKRNAYYYWGQGTQVTVSS", "polyreactivity (PSR sort gate)": "low polyreactivity"}
{"sequence": "QVQLVESGGGLVQAGGSLRLSCAASGRIFRAYAMGWYRQAPGKERELVASITGSGGSTYYADSVKGRFTISRDNAKNTVYFQMNILKPEDTAVYYCAVASYRVWGVGTRYYYWGQGTHVTVSS", "polyreactivity (PSR sort gate)": "high polyreactivity"}
{"sequence": "QVQLVESGGGLVQAGGSLRLSCAASGRIFRAYTMGWYRPAPGKERELVAAISTRSGRTYYADSVKGRFTISRDKEKNTVYLQMNSLKPEDTAVYYCAADRSGSAWYGYWGQGTQVTVSS", "polyreactivity (PSR sort gate)": "high polyreactivity"}
{"sequence": "QVQLVESGGGLVQAGGSLRLSCAASGRIFRDYVMGWYRQAPGKERELVAAITQRGGSTYYADSVKGRFTISRDNAKNTVYLQLNSLKPEDTAVYYCNARWYRYGTGGVGYGGYDYWGQGTQVTVSS", "polyreactivity (PSR sort gate)": "low polyreactivity"}
{"sequence": "QVQLVESGGGLVQAGGSLRLSCAASGRIFRENAMGWYRQAPGKERELVAAINRSGSRTYYADSVKGRFTISRDNAKNTVYLQMNSLKPEDTAVYYCATASSIRYDYWGQGTQVTVSS", "polyreactivity (PSR sort gate)": "high polyreactivity"}
{"sequence": "QVQLVESGGGLVQAGGSLRLSCAASGRIFRGNAMGWYRQAPGKERELVARITGNDGDTYYADSVKGRFTISRDNAKNTVYLQMNSLKPEDTAVYYCATDTSSYRRRYYYWGQGTQVTVSS", "polyreactivity (PSR sort gate)": "low polyreactivity"}
